Laboratory results from article PMC11700871 (Theranostics, 2025).
Read-outs that look alike come from different tables or passages of the source. Where a SMILES comes first, the peptide text is derived from it. The star is where a group is joined. X1 = O=C(O)c1cc(N*)ccc1O

Legend:
LO-2 cells [1] = assay: Expression of Cat-B and CHOP in hepatocytes after drug exposure; assay type: cell-based, human; settings: LO-2 cells after treatment with APAP
Excerpt: We initially investigated the changes within human hepatocytes in response to drug exposure.

APAP-induced ALF model = assay: Therapeutic efficacy in APAP-induced ALF mouse model; assay type: in vivo, C57BL/6 mice; settings: ALF mice
Description: The in vivo therapeutic efficacy of SPNs was evaluated in an APAP-induced ALF model.
Following 24 h of treatment, liver tissue was collected from the mice and then stained with H&E, fluorescent dye-conjugated antibodies (TNF-α, 506303, Biolegend; IL-6, 504503, Biolegend; and IL-10, 505005, Biolegend) or TUNEL (G3250, Promega). A portion of the liver tissues was dispersed in lysis buffer and subsequently centrifuged to remove debris, followed by western blot for MAPK and assessment of cytokines, such as TNF-α, IL-6, IL-1β and IL-10, via ELISA assays. Hematological parameters were analyzed by KNOTUS (Incheon, Republic of Korea).

normal C57BL/6 mice = settings: mouse, in vivo
Description: The body weight was measured every two days. Seven days after treatment, the hematological parameters were assessed, including AST, ALT, BUN, creatinine, LDH, CK, red blood cell (RBC), hemoglobin (HGB), hematocrit (HCT), platelet (PLT), white blood cell (WBC), neutrophil (NEU) and lymphocyte (LYM). Major organs were collected from the mice and then observed using optical microscopy after H&E staining (BX 51, Olympus, USA). The levels of TNF-α, IL-1β and IL-6 in homogenized kidney tissues were quantified via ELISA assays.

healthy LO-2 cells [2] = assay: Release of DAMPs (HMGB1, HSP70) from healthy hepatocytes; settings: supernatants, western blot
Description: (§2) The cells were then washed with DPBS and dispersed in lysis buffer, followed by centrifugation at 12,000 rpm for 30 min to remove cell debris. Subsequently, the proteins were quantified using a BCA assay kit (23221, Thermo Fisher Scientific), boiled after mixing with sodium dodecyl sulfate loading buffer (NaraBio, Gyeonggi-do, Republic of Korea) for 5 min, and separated by 10% SDS polyacrylamide gel electrophoresis. […] HMGB1 and HSP70 were analyzed in the supernatants after incubating LO-2 cells using the same protocol described above. Finally, the membranes were incubated with goat anti-rabbit immunoglobulin-HRP antibody for 2 h.

Cat-B = target: T1, Cat-B (Homo sapiens, UniProt P07858); assay: Enzyme-specific cleavage by HPLC, Cat-B; assay type: in vitro ADME; settings: 1 h, pH 5.5 MES buffer, 37°C, HPLC and LC/MS
T1 construct: purchased R&D systems 953CY
Description: (§1) After a 30 min reaction, the final product was purified and analyzed using an LC/MS system (Agilent 1200 Series HPLC system). The hydrodynamic size and zeta potential were analyzed by using a Zetasizer (Nano ZS, Malvern Instruments, Worcestershire, UK). The morphology of SPNs in distilled water was observed using transmission electron microscopy (CM-200, Philips, USA). The target enzyme-specific cleavage was evaluated through HPLC analysis after incubation with Cat-B (953CY, R&D systems, MN, USA), Cat-E (1294-AS, R&D systems), Cat-D (1014-AS, R&D systems), Cat-L (952-CY, R&D systems), MMP-9 (911-MP, R&D systems) or Cas-3 (707-C3/CF, R&D systems) in pH 5.5 2-(N-morpholino)ethane sulfonic acid (MES) buffer at 37°C.

Cat-D = target: T2, Cat-D (Homo sapiens, UniProt P07339); assay: Enzyme-specific cleavage by HPLC, Cat-D; assay type: in vitro ADME; settings: 24 h, pH 5.5 MES buffer, 37°C
T2 construct: purchased R&D systems 1014-AS
Description: as §1

Cat-E = target: T3, Cat-E (Homo sapiens, UniProt P14091); assay: Enzyme-specific cleavage by HPLC, Cat-E; assay type: in vitro ADME; settings: 24 h, pH 5.5 MES buffer, 37°C
T3 construct: purchased R&D systems 1294-AS
T3 sequence (P14091 54-396): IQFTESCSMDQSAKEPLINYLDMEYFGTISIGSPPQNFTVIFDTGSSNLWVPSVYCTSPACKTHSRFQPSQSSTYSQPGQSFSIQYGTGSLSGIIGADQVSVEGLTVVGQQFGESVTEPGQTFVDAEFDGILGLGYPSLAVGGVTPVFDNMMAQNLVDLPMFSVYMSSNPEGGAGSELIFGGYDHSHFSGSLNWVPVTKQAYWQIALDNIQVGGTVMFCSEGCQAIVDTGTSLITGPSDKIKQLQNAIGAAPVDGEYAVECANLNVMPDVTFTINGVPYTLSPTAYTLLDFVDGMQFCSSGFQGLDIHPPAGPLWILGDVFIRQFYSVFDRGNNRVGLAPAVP
Description: as §1

Cat-L = target: T4, Cat-L (Homo sapiens, UniProt P07711); assay: Enzyme-specific cleavage by HPLC, Cat-L; assay type: in vitro ADME; settings: 24 h, pH 5.5 MES buffer, 37°C
T4 construct: purchased R&D systems 952-CY
Description: as §1

Caspase 3 (Cas-3) = target: T5, Caspase 3 (Cas-3) (Homo sapiens, UniProt P42574); assay: Enzyme-specific cleavage by HPLC, Caspase 3; assay type: in vitro ADME; settings: 24 h, pH 5.5 MES buffer, 37°C
T5 construct: purchased R&D systems 707-C3/CF
T5 sequence (P42574 29-175 limits assumed): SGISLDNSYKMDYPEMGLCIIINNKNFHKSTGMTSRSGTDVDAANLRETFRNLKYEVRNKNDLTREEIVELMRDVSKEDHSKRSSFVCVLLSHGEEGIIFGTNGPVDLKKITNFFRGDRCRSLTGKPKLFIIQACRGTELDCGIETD
T5 sequence (P42574 176-277 limits assumed): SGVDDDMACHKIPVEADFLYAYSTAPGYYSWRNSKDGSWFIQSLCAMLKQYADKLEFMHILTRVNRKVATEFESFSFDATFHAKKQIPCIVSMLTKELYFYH
Description: as §1

[3] = target: T6, matrix metalloproteinase 9 (MMP-9) (Homo sapiens, UniProt P14780); assay: Enzyme-specific cleavage by HPLC, MMP-9; assay type: in vitro ADME; settings: 24 h, pH 5.5 MES buffer, 37°C
T6 construct: purchased R&D systems 911-MP
Description: as §1

LO-2 cells [4] = assay: Cytotoxicity assay (CCK-8), LO-2; assay type: cell-based, human; settings: 0 to 20 mM, 24 h, compared with mesalamine
MIHA cells = assay: Cytotoxicity assay (CCK-8), MIHA; assay type: cell-based, human; settings: 0 to 20 mM, 24 h, compared with mesalamine
HepG2 cells = assay: Cytotoxicity assay (CCK-8), HepG2; assay type: cell-based; settings: 0 to 20 mM, 24 h, compared with mesalamine
healthy LO-2 cells [5] = tested on: healthy LO-2 cells
Description: as §2

[6] = Biodistribution by NIRF imaging in naive and ALF mice; assay type: in vivo, C57BL/6 mice; settings: ALF mice, intravenous
Description: The in vivo behavior of SPNs was assessed in healthy mice and APAP-induced ALF models. […] Fluorescence intensity in the images was quantified using LivingImage software. Ex vivo NIRF imaging was conducted with major organs collected from the mice 9 h post-treatment.

T4 sequence (P07711 114-333): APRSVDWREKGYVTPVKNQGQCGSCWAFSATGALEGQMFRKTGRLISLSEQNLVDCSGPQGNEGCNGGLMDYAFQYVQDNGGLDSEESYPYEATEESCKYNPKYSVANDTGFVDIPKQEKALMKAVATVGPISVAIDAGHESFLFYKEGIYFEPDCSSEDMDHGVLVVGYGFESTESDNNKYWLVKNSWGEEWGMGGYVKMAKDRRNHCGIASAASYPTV
T6 sequence (P14780 94-707): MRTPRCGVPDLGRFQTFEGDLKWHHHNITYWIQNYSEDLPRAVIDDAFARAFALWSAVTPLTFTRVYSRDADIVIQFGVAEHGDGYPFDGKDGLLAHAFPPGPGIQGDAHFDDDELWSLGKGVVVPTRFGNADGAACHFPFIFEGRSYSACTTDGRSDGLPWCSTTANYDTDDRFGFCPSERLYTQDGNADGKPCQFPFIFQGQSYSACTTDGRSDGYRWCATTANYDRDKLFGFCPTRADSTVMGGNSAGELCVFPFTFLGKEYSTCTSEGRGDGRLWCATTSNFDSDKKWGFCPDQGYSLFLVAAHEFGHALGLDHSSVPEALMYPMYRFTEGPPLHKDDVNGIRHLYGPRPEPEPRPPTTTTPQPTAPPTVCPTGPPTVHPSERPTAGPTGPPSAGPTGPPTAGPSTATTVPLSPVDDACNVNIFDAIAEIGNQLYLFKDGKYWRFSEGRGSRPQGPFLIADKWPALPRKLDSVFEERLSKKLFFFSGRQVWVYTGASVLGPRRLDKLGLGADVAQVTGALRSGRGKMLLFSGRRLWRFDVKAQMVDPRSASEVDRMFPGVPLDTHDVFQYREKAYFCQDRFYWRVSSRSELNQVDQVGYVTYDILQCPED
T2 sequence (P07339 65-412): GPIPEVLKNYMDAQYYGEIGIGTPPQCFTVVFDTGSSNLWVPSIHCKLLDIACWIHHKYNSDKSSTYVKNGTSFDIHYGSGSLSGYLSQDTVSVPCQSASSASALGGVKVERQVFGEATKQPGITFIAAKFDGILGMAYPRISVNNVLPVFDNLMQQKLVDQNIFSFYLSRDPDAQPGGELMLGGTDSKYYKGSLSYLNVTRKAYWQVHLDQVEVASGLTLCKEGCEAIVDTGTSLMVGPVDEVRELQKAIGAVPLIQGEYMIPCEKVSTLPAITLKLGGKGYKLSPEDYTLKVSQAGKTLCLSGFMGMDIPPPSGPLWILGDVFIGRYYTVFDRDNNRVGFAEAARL

With `CC(=O)Nc1ccc(O)cc1` [APAP, acetaminophen] the “Cat-B level compared to the naive cells” value (LO-2 cells [1]) was 4.22 fold and the “increase in C/EBP homologous protein (CHOP) compared to the naive cells” value (LO-2 cells [1]) was 1.58 fold.
In the case of `Nc1ccc(O)c(C(=O)O)c1` [mesalamine], the body weight change (APAP-induced ALF model; 24 h of treatment, mesalamine or SPNs 5 mg/kg mesalamine content i.v.) is reported as “even more severe weight loss relative to the PBS group”, the “AST and ALT levels” value (APAP-induced ALF model; 24 h post-treatment, 5 mg/kg mesalamine content i.v.) is reported as “higher levels of these parameters compared to the PBS group” and the “histopathological toxicities in major organs” value (normal C57BL/6 mice) is reported as “substantial structural abnormalities and damaged areas in major organs”. The “release of DAMPs (HMGB1 and HSP70)” value (healthy LO-2 cells [2]) was “significantly higher levels”.
With `CC(=O)N[C@@H](CS)C(=O)O` [NAC, N-acetylcysteine] the “effects in preventing body weight loss and histohematological changes” value (APAP-induced ALF model; NAC 100 mg/kg i.v., compared with SPNs) was “limited effects”.
For `CC(=O)N[C@@H](Cc1ccccc1)C(=O)N[C@@H](CCCNC(=N)N)C(=O)N[C@@H](CCCNC(=N)N)C(=O)NCC(=O)Nc1ccc(O)c(C(=O)O)c1` [SPNs] (Ac-FRRG-X1), the “cleavage upon incubation with Cat-B” value (Cat-B) was “completely decomposed into mesalamine”, the “cleavage upon incubation with Cat-D” value (Cat-D) was “no detectable cleavage” and the “cleavage upon incubation with Cat-E” value (Cat-E) was “no detectable cleavage”. The “cleavage upon incubation with Cat-L” value (Cat-L) was “no detectable cleavage”, the “cleavage upon incubation with Cas-3” value (Caspase 3 (Cas-3)) was “no detectable cleavage” and the “cleavage upon incubation with MMP-9” value [3] was “no detectable cleavage”. The “toxicity to LO-2 cells (cell viability)” value (LO-2 cells [4]) was “significantly minimized the toxicity of mesalamine”, the “toxicity to MIHA cells (cell viability)” value (MIHA cells) was “significantly minimized the toxicity of mesalamine” and the “toxicity to HepG2 cells (cell viability)” value (HepG2 cells) was “significantly minimized the toxicity of mesalamine”. The “histopathological toxicities in major organs” value (normal C57BL/6 mice) was “not observed” and the “release of DAMPs (HMGB1 and HSP70)” value (healthy LO-2 cells [5]) was “did not increase DAMP release”.
In the case of `CCN1\C(=C/C=C/C=C/C2=[N+](CCCCCC(=O)O)c3ccc4c(S(=O)(=O)O)cc(S(=O)(=O)O)cc4c3C2(C)C)C(C)(C)c2c1ccc1c(S(=O)(=O)[O-])cc(S(=O)(=O)O)cc21` [free Cy5.5], the “in vivo clearance (NIRF imaging)” value [6] is reported as “rapid in vivo clearance”.
